Measured values as given in patent publication US9879060B2, “SV82 polypeptide, and cosmetic composition for reducing skin wrinkles and maintaining skin elasticity comprising SV82 polypeptide as active ingredient” (NEXGEN BIOTECHNOLOGIES, INC., priority 2015, dated 2018).

Tested on: Human dermal fibroblast adult (HDFa) cells
Assay: Cell proliferation of HDFa by crystal violet staining
Format: cell-based
Details: 0.02 or 0.2 ppm, 3 days at 37° C., compared to a control (FIG. 5)
Protocol: Human dermal fibroblast adult (HDFa) cells, which had been cultured to evaluate the activity of SV82 polypeptide that has been separated and purified in Example 2, were treated with SV82 polypeptide having a concentration of 0, 0.02 ppm or 0.2 ppm, and then incubated for 3 days at a temperature of 37° C. Thereafter, the cells were stained by crystal violate staining to identify whether the cells had proliferated.

B1: SV82 polypeptide (protein)
chain: MKYLLPTAAAGLLLLAAQPAMARATCAGQDQPCKETCDCCGERGECVCGGPCICRQGYFWIAWYKLANCKKLEHHHHHH
modifications: SV82
B1 was tested, and the “cell proliferation of HDFa (crystal violet staining)” value was “the more HDFa cells proliferate”.
